Measured values as given in patent publication US20240408238A1.

Target: Nme2Cas9 expressed from plasmid in HEK293T cells (human-codon-optimized, NLSs and 3xHA tag) (Neisseria meningitidis strain De11444)
Assay: cell-based or functional assay

Row | Substance | genome editing in HEK293T cells at varied ratios of Acr plasmid to Cas9 plasmid: ratio giving full inhibition (mass ratio Acr plasmid:Nme2Cas9 plasmid)
1 | AcrIIC1Nme | 2
2 | AcrIIC4Hpa | 1
